Experiments:
Δ123 E2661 M + C597A = Δ123 E2661 M + C597A (HCV genotype 1a H77c, UniProt P27958 409-661); assay: EIA: E2 titrated on coated MBP-LEL113-201 (5 ug/ml), detected with anti-His
[1] = target: WT E2661 M + C597A (C452A, C486A, C569A, C581A, C585A, C597A and C652A) (HCV genotype 1a H77c, UniProt P27958 384-661); assay: as above

B1: MBP-LEL113-201, maltose-binding protein linked to the CD81 large extracellular loop between residues 113 to 201 (receptor)
chain: FVNKDQIAKDVKQFYDQALQQAVVDDDANNAKAVVKTFHETLDCCGSSTLTALTTSVLKNNLCPSGSNIISNLFKEDCHQKIDDLFSGK
notes: range 113-201; also called CD81-LEL; CD81 LEL
B1: binds (Δ123 E2661 M + C597A); binds [1].

Source: patent US20130224246A1 (MACFARLANE BURNET INSTITUTE FOR MEDICAL RESEARCH AND PUBLIC …, published 2013)
